# Measured values: patent EP2239269B1, “Use of peptides derived from copolymer-1 as molecular weight markers” (YEDA RESEARCH AND DEVELOPMENT CO., LTD., priority 1998, dated 2013)
# B1: TV-86: 86-mer sequence-defined polypeptide molecular weight marker of Ala, Glu, Tyr, Lys, molecular weight = 9220 daltons (peptide)
# chain: AKKYAKKEKAYAKKAEKAAKKAEAKAYKAAEAKKKAKAEAKKYAKAAKAEKKEYAAAEAKYKAEAAKKAYKAEAAKAAAKEAAYEA
# B2: TV-77: 77-mer sequence-defined polypeptide molecular weight marker of Ala, Glu, Tyr, Lys, molecular weight = 8259 daltons (peptide)
# chain: AKKYAKKEKAYAKKAEKAAKKAEAKAYKAAEAKKKAKAEAKKYAKAAKAEKKEYAAAEAKYKAEAAKAAAKEAAYEA
# B3: TV-109: 109-mer sequence-defined polypeptide molecular weight marker, molecular weight = 11727 daltons (peptide)
# chain: AKKYAKKAEKAYAKKAKAAKEKKAYAKKEAKAYKAAEAKKKAKAEAKKYAKEAAKAKKEAYKAEAKKYAKAAKAEKKEYAAAEAKKAEAAKAYKAEAAKAAAKEAAYEA
# B4: TV-66: 66-mer sequence-defined polypeptide molecular weight marker of Ala, Glu, Tyr, Lys, molecular weight = 7040 daltons (peptide)
# chain: AKKYAKKEKAYAKAKKAEAKAAKKAKAEAKKYAKAAKAEKKEYAAAEAKYKAEAAKAAAKEAAYEA
# Experiment: Stability of marker solutions stored frozen at -10 to -20°C, followed by retention time at column calibration
# Assay type: physicochemical
# Design: unit not given here
# Conditions: stored at -10° to -20°C; date of calibration 04-step-97, interval 105 days
# Protocol: In addition, solutions of the markers were stored for up to 3 ½ months under various storage conditions (2-8 °C, -10 to -20°C, with/without azide).
row,Molecule,RT
1,B1,24.950
2,B2,25.550
3,B3,23.583
4,B4,26.300

# Same assay, conditions: stored at -10° to -20°C; date of calibration 09-Jul-97, interval 48 days
row,Molecule,RT
1,B1,25.017
2,B2,25.617
3,B3,23.650
4,B4,26.317

# Same assay, conditions: stored at -10° to -20°C; date of calibration 22-May-97, interval -
row,Molecule,RT
1,B1,24.883
2,B2,25.467
3,B3,23.500
4,B4,26.233

# Experiment: Stability of markers in solution at room temperature, followed by peak retention time on chromatography
# Assay type: physicochemical
# Conditions: average of the four analyses over 24 hours, room temperature
# Protocol: Stability of markers in solution - TV-markers were chromatographed four times over a period of 24 hours. All markers were kept as solutions at room temperature and were analyzed at 8 hour intervals.
row,Molecule,"Peak Retention Time, Average"
1,B1,26.129
2,B2,26.746
3,B3,24.842
4,B4,27.404

# Same assay, conditions: solution at room temperature, 0.1 mg/ml; 1st of four analyses at 8 hour intervals over 24 hours
row,Molecule,Peak Retention Time [min]
1,B1,26.117
2,B2,26.750
3,B3,24.783
4,B4,27.400

# Same assay, conditions: solution at room temperature, 0.1 mg/ml; 2nd of four analyses at 8 hour intervals
row,Molecule,Peak Retention Time [min]
1,B1,26.100
2,B2,26.700
3,B3,24.850
4,B4,27.350

# Same assay, conditions: solution at room temperature, 0.1 mg/ml; 3rd of four analyses at 8 hour intervals
row,Molecule,Peak Retention Time [min]
1,B1,26.150
2,B2,26.750
3,B3,24.883
4,B4,27.433

# Same assay, conditions: solution at room temperature, 0.1 mg/ml; 4th of four analyses at 8 hour intervals
row,Molecule,Peak Retention Time [min]
1,B1,26.150
2,B2,26.783
3,B3,24.850
4,B4,27.433

# Experiment: Circular dichroism, molar ellipticity (Jobin-Yvon CD spectrophotometer)
# Assay type: physicochemical
# Design: unit not given here
# Conditions: not given
# Text: Circular dichroism - Structural similarity between the molecular weight markers and glatiramer acetate is a pre-requisite for an appropriate calibration of a molecular sizing column. Differences in polypeptide structure may result in different hydrodynamic size and consequently in altered retention time in the chromatographic system. The ellipticity, determined by circular dichroism, serves as a measure of the secondary structure of a polypeptide. When the ellipticity of the molecular weight markers and glatiramer acetate is similar, the structures of the two will be similar.
# The molar ellipticity of the polypeptides was determined on a Jobin-Yvon CD spectrophotometer. […] Note that while the exact molecular weight for the TV-markers was plotted, the averace-by-number molecular weight for the glatiramer acetate was used in the plot.
row,Molecule,M-ellip. (210nm)
1,B1,-5.4546
2,B2,-4.8365
3,B3,-6.818
4,B4,-3.5172
